Laboratory results from publication PMC9168836, “Clamping of DNA shuts the condensin neck gate” (Proceedings of the National Academy of Sciences of the …, 2021).

T1: Smc4-3xStrepII (budding yeast (S. cerevisiae), UniProt Q12267 1-1418)
T1 construct: Smc4, SMC subunit of budding yeast (S. cerevisiae) condensin; only the head domain, proximal coiled coil and residues 126-144 are resolved in the maps; The tag's end is read from the plasmid's name SMC4-3xStrepII; also called Scm4
T1 sequence: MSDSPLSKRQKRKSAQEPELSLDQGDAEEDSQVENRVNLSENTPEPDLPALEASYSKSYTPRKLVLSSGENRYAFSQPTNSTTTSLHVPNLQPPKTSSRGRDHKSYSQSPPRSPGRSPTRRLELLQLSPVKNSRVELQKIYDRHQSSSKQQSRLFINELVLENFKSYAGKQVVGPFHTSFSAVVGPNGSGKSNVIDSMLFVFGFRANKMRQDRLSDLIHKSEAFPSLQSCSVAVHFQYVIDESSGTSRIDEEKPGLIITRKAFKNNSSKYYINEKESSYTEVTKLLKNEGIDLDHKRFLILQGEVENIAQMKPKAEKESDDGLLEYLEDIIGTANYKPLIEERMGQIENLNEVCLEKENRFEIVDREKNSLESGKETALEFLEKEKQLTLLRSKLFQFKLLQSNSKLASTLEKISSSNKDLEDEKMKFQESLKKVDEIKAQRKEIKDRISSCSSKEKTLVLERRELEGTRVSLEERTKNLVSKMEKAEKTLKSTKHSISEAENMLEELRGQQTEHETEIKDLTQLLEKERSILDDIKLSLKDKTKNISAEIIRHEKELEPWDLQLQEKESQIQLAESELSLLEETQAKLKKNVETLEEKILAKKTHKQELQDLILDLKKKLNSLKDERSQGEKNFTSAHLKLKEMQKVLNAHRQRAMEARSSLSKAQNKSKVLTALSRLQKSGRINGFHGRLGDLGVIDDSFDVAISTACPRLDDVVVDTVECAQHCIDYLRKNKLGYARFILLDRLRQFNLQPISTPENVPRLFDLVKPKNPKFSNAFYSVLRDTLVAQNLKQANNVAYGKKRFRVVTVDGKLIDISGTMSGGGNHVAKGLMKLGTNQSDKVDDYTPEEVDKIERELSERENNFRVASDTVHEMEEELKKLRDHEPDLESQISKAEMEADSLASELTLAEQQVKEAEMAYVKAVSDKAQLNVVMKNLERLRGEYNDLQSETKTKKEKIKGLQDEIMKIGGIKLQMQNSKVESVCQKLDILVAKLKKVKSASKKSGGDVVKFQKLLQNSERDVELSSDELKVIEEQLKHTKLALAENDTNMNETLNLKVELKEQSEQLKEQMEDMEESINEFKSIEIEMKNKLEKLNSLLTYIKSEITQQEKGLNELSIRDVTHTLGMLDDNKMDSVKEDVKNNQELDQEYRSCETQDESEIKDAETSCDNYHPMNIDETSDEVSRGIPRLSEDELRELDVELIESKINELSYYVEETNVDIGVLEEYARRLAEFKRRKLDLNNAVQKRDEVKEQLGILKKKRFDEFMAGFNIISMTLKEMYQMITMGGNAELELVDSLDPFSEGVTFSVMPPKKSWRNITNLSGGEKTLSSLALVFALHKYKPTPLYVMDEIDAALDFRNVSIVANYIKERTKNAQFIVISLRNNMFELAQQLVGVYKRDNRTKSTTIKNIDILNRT

B1: Smc2 (natural protein, budding yeast (S. cerevisiae))
chain: MKVEELIIDGFKSYATRTVITDWDPQFNAITGLNGSGKSNILDAICFVLGIASMSTVRASSLQDLIYKRGQAGVTKASVTIVFDNTDKSNSPIGFTNSPQISVTRQVVLGGTSKYLINGHRAPQQSVLQLFQSVQLNINNPNFLIMQGKITKVLNMKPSEILSLIEEAAGTKMFEDRREKAERTMSKKETKLQENRTLLTEEIEPKLEKLRNEKRMFLEFQSTQTDLEKTERIVVSYEYYNIKHKHTSIRETLENGETRMKMLNEFVKKTSEEIDSLNEDVEEIKLQKEKELHKEGTISKLENKENGLLNEISRLKTSLSIKVENLNDTTEKSKALESEIASSSAKLIEKKSAYANTEKDYKMVQEQLSKQRDLYKRKEELVSTLTTGISSTGAADGGYNAQLAKAKTELNEVSLAIKKSSMKMELLKKELLTIEPKLKEATKDNELNVKHVKQCQETCDKLRARLVEYGFDPSRIKDLKQREDKLKSHYYQTCKNSEYLKRRVTNLEFNYTKPYPNFEASFVHGVVGQLFQIDNDNIRYATALQTCAGGRLFNVVVQDSQTATQLLERGRLRKRVTIIPLDKIYTRPISSQVLDLAKKIAPGKVELAINLIRFDESITKAMEFIFGNSLICEDPETAKKITFHPKIRARSITLQGDVYDPEGTLSGGSRNTSESLLVDIQKYNQIQKQIETIQADLNHVTEELQTQYATSQKTKTIQSDLNLSLHKLDLAKRNLDANPSSQIIARNEEILRDIGECENEIKTKQMSLKKCQEEVSTIEKDMKEYDSDKGSKLNELKKELKLLAKELEEQESESERKYDLFQNLELETEQLSSELDSNKTLLHNHLKSIESLKLENSDLEGKIRGVEDDLVTVQTELNEEKKRLMDIDDELNELETLIKKKQDEKKSSELELQKLVHDLNKYKSNTNNMEKIIEDLRQKHEFLEDFDLVRNIVKQNEGIDLDTYRERSKQLNEKFQELRKKVNPNIMNMIENVEKKEAALKTMIKTIEKDKMKIQETISKLNEYKRETLVKTWEKVTLDFGNIFADLLPNSFAKLVPCEGKDVTQGLEVKVKLGNIWKESLIELSGGQRSLIALSLIMALLQFRPAPMYILDEVDAALDLSHTQNIGHLIKTRFKGSQFIVVSLKEGMFANANRVFRTRFQDGTSVVSIM
notes: Smc2, SMC subunit of budding yeast (S. cerevisiae) condensin; only the head domain and proximal coiled coil (neck) are resolved in the maps; Subunit of the wild-type condensin tetramer and pentamer used for cryo-EM
B2: Ycs4 (natural protein, S. cerevisiae)
chain: MSGFSLSEYLTKFQTTDRESYPRLQDPSRELNVIIDQLAVSPEQIDASPDSLEALIDLCHDFPHLTPKLQTQLSYLISSSLSNLSKDIKANLSSNVNFTEIGGLIPQWKRHLEEYGYLIQVLLTFLQDELHKVSSQSTNLNRSAKNSKNDSANVELFKRDCNQMENLLESITKLLEINLSKIFQTTPEKDLFIGLFTRPLFVLLEIEPVTKVSSLKMFIQRILAMCVKNHGQSSSIQSSLMTNLTYFLHLSVFNAELLKLLNDEYNYPQLTEDILKEISTRVFNAKDTTGPKAISNFLIKLSELSPGIMLRQMNLVITLLNNSSITLRCSVVEACGNIVAELAQDPQTMEHYKQQIAVLIELLEERFQDSNPYVRTKAIQGCSKICDLSSKFNKSKAKFTSLAVRSLQDRSSLVRRNSVKLLSKLLLKHPFKAIHGSQLRLSEWEEYLKGSESQLNSTLKKVESQETLNDTIERSLIEEEVEQDEGQCRTELEGSFNKSAELSRIENEVENINATNTSVLMKLKLMIVYYKDAISFIKEIHKSIELISNLLFSKNRNEVLESMDFLVLADAFDIELSEFGIKKMLHLVWMKGTNDEGTSISVHLIECYKQLFLTAPDSCNMQEKAAHIAKNLINLSIGASIADLASLEQLLGMMYEQKLIDQHVINILWAIYNSASKASMQKEQNVNNRDSEKGFSKEQIHGSIIILGMLSLADNEIALKGLESLLNIGLGAVGLKDLTLCRYSCLALERMVPKRSTIITKAINQELEDVAVKKLYAIIINYTKDNEYYPMCEQALSALFTISSKPDILATDLIREKTMMTFGKPEEEDSILSLEQSSRVVSLSQLLFIVGQVAIKTLVYLEKCEAEFKKRKIEAETRNGKVKNQGADVTNTTQDNGGDKELEMIGGTNEDDFTDAIQFVKENELLFGEKSILGKFCPIVEEIVSNSSRFSDPMLQRTATLCLEKLMCLSSKYCEKSLPLLITVMEKSPDPTIRSNAVLGLGDMAVCFNNLVDENTDYLYRRLHDENLMVQRTCLMTVTFLILAGQVKVKGQLGEMAKCLDNPDQGISDMCRLFFTELASKDNAIYNGFIDIFSNLSSDDLLGKESFKKIIKFLLTFIDKERHQKQLNEKLVGRLRKCETQKQWDDIAFVLNNLPYKNEDVTALLEQGFKVVSAKE
notes: Ycs4, HAWK (HEAT repeat) subunit of S. cerevisiae condensin

Tests used:
Details in all cases: both partners purified
[1] = target: B2; assay: cryo-EM structure; condensin pentamer (Smc2, Smc4, Brn1, Ycs4, Ycg1) with 80-bp dsDNA, 5 mM ADP, 1 mM BeSO4, 10 mM NaF in TNT buffer pH 7.5; separate maps of the clamped head module and of Ycg1-DNA
[2] = target: T1, Smc4-3xStrepII; assay: cryo-EM structure; condensin tetramer (Smc2, Smc4, Brn1, Ycs4) with 80-bp dsDNA, 5 mM ADP, 1 mM BeSO4, 10 mM NaF in TNT buffer (30 mM Tris/HCl, 60 mM NaCl, 1 mM TCEP, 2 mM MgCl2, pH 7.5), 30 min at room temperature; clamped head module, Forms I and II
[3] = target: T1, Smc4-3xStrepII; assay: cryo-EM structure; condensin pentamer (Smc2, Smc4, Brn1, Ycs4, Ycg1) with 80-bp dsDNA, 5 mM ADP, 1 mM BeSO4, 10 mM NaF in TNT buffer pH 7.5; separate maps of the clamped head module and of Ycg1-DNA

Row | Binder | binding result [1] | binding result [2] | binding result [3]
1 | B1 | binds | binds | 
2 | B2 |  |  | binds
